The values below come from patent publication US20240409935.

One data set concerns the target T1, endogenous PACT, O75569.
T1 chain: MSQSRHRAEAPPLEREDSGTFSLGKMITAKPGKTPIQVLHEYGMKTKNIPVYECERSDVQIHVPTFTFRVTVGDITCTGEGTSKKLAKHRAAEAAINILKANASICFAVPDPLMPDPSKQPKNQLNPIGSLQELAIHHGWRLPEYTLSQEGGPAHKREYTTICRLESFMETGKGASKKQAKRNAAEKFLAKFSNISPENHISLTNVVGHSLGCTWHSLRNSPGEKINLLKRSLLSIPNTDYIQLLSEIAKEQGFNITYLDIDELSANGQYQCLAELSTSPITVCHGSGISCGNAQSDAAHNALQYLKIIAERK

A further data set deals with T2, GFP-PACT, O75569.
T2 chain: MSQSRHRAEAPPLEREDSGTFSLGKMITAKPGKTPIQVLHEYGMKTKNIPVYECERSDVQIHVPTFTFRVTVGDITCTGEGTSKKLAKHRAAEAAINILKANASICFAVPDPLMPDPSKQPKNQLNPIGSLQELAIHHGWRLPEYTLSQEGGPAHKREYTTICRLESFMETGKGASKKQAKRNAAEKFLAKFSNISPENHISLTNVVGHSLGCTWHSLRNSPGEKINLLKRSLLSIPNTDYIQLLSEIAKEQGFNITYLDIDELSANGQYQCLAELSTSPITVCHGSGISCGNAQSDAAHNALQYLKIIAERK

B1: FLAG-PKR (protein)
chain: MAGDLSAGFFMEELNTYRQKQGVVLKYQELPNSGPPHDRRFTFQVIIDGREFPEGEGRSKKEAKNAAAKLAVEILNKEKKAVSPLLLTTTNSSEGLSMGNYIGLINRIAQKKRLTVNYEQCASGVHGPEGFHYKCKMGQKEYSIGTGSTKQEAKQLAAKLAYLQILSEETSVKSDYLSSGSFATTCESQSNSLVTSTLASESSSEGDFSADTSEINSNSDSLNSSSLLMNGLRNNQRKAKRSLAPRFDLPDMKETKYTVDKRFGMDFKEIELIGSGGFGQVFKAKHRIDGKTYVIKRVKYNNEKAEREVKALAKLDHVNIVHYNGCWDGFDYDPETSDDSLESSDYDPENSKNSSRSKTKCLFIQMEFCDKGTLEQWIEKRRGEKLDKVLALELFEQITKGVDYIHSKKLIHRDLKPSNIFLVDTKQVKIGDFGLVTSLKNDGKRTRSKGTLRYMSPEQISSQDYGKEVDLYALGLILAELLHVCDTAFETSKFFTDLRDGIISDIFDKKEKTLLQKLLSKKPEDRPNTSEILRTLTVWKKSPEKNERHTC
Turning to B1, the PKR phosphorylation result in the data set with endogenous PACT, O75569 is recorded as “increased PKR phosphorylation under the same conditions”.

B2: endogenous PKR (protein)
chain: AGDLSAGFFMEELNTYRQKQGVVLKYQELPNSGPPHDRRFTFQVIIDGREFPEGEGRSKKEAKNAAAKLAVEILNKEKKAVSPLLLTTTNSSEGLSMGNYIGLINRIAQKKRLTVNYEQCASGVHGPEGFHYKCKMGQKEYSIGTGSTKQEAKQLAAKLAYLQILSEETSVKSDYLSSGSFATTCESQSNSLVTSTLASESSSEGDFSADTSEINSNSDSLNSSSLLMNGLRNNQRKAKRSLAPRFDLPDMKETKYTVDKRFGMDFKEIELIGSGGFGQVFKAKHRIDGKTYVIKRVKYNNEKAEREVKALAKLDHVNIVHYNGCWDGFDYDPETSDDSLESSDYDPENSKNSSRSKTKCLFIQMEFCDKGTLEQWIEKRRGEKLDKVLALELFEQITKGVDYIHSKKLIHRDLKPSNIFLVDTKQVKIGDFGLVTSLKNDGKRTRSKGTLRYMSPEQISSQDYGKEVDLYALGLILAELLHVCDTAFETSKFFTDLRDGIISDIFDKKEKTLLQKLLSKKPEDRPNTSEILRTLTVWKKSPEKNERHTC
Turning to B2, in the data set with GFP-PACT, O75569, the PKR phosphorylation entry was “this was accompanied by an increase in PKR phosphorylation during lysosomal damage”.
